Two substances from PMC10467048 can be followed below.

The target of experiment [1] is LTB−JEV EDIII (TEV cut) (not stated | Japanese encephalitis virus). The experiment can be described thus: SEC.
Experiment [2] has the same target. The experiment can be described thus: PAGE after incubation at different temperatures.
Experiment [3] shares this target. Nature of the experiment: PAGE under non-reduced conditions (without boiling, without DTT).
The target in experiment [4] is CTB−JEV EDIII (not stated | Japanese encephalitis virus). The experiment can be described thus: PAGE after incubation at different temperatures.
The target is the same in experiment [5]. Nature of the experiment: PAGE under non-reduced conditions (without boiling, without DTT).

Take LTB−JEV EDIII (TEV cut): the stoichiometry N in experiment [1], in experiment [2] and in experiment [3] was 5 each time.

On to CTB−JEV EDIII, for which the stoichiometry N in experiment [4] and in experiment [5] was 5 throughout.
